Measurements from the RNAGym collection of RNA variant scans (doi:10.7554/elife.90254).

B1: LINE1-mini (parent)
chain: GGCAGAGCUCAACACAGCGUGGCAAAGUGGCUGUGGCUAGACUGCC

Variants of: B1
Assay: self-cleavage, relative activity (ratio to wild type); higher = more cleavage; in vitro, sequencing; the parent is a self-cleaving ribozyme

Variant | self-cleavage
GGCAGAGCUCCACACAGCGUGGCAAAGCGGCUGUGGCUAGACUGCC | 0.03
GGCAGAGCUCAACACAGCGUGGCAAAGUGACUGUGGCUAGAAUGCC | 0.14
GGCAGAGACCAACACAGCGUGGCAAAGUGGCUGUGGCUAGACUGCC | 0.14
GGCAGAGCUCAACACAGCGUGGCAAAGUGGCUGUGGCUACACUGAC | 0.09
GGCUGCGCUCAACACAGCGUGGCAAAGUGGCUGUGGCUAGACUGCC | 0.06
UGCAGAGCUCAACACAGCGUUGCAAAGUGGCUGUGGCUAGACUGCC | 0.41
GGCAGAGCUCAACACUGCGUGGCAAAGUGGCUGUGGGUAGACUGCC | 0.07
UGCAGAGCUCAACACAGCGUGGCAAAGUGGCUGAGGCUAGACUGCC | 0.05
GGCAGAGCUCAACACAGCGUGGCAAAGUUGCUUUGGCUAGACUGCC | 0.12
GGCAGAGCUCAACACAGCAUGGCAAAGUGGCUCUGGCUAGACUGCC | 0.05
GGCGGAGCUCAACACAGCGUGGCAAAGUGGCUGUGGCUUGACUGCC | 0.33
GGCAGACCUCAACACAGCGUGGCAAAGUGGAUGUGGCUAGACUGCC | 0.09
GGCAGAGCUCAACACUGCGUGGCAAAGUAGCUGUGGCUAGACUGCC | 0.38
AGCAGAUCUCAACACAGCGUGGCAAAGUGGCUGUGGCUAGACUGCC | 0.3
GGCAGAGCUCAACACAGCGUGGCGAAGUGGCUGUGGCCAGACUGCC | 0.71
GGCAGAGCUCAACACAGAGGGGCAAAGUGGCUGUGGCUAGACUGCC | 0.61
GGCAGGGCUCAACACAGCGUGGCAAAGUGGCUGUGGCUAGACUGCC | 0.12
GGCAGAGCUUAACACAGCGUGGCAAAGUGGCUGUGGCUAGACAGCC | 0.04
GGCAGAGCUCAUCACAGCGUGGCUAAGUGGCUGUGGCUAGACUGCC | 0.31

Variant | self-cleavage
GGCAGAGCUCAACACAGCGUGACAAAGUGGCUGUGGCAAGACUGCC | 0.33
GGCAGAGCUCAACAUAGCGUGGCAAAGUGGCUUUGGCUAGACUGCC | 0.37
GGCAGAGCUCAACACAGCGUGGCAAAGUGGUUGUGGCUAGACUGAC | 0.13
UGCAGAGCUCAACACAGCGUGGCCAAGUGGCUGUGGCUAGACUGCC | 0.36
GGCAGAGCUCAACAGAGCGUGGCGAAGUGGCUGUGGCUAGACUGCC | 0.03
GGCAGAGCUCAACACAGCGUGUCAAAGCGGCUGUGGCUAGACUGCC | 0.42
GGCAGAGCUCAACACAGCGUGGCAAAGUUGCUGUGGCUAGACUACC | 0.41
GGCGGAGCUCAACACAGAGUGGCAAAGUGGCUGUGGCUAGACUGCC | 0.31
GGCAGAGCUCAACGCAGCGUGGCAAAGUGGCUGUGGCUUGACUGCC | 0.37
GGCAGAGCUCAACACAGCGUGGCGAAGUGGCUGUCGCUAGACUGCC | 0.17
GGCAUAGCUCAACACGGCGUGGCAAAGUGGCUGUGGCUAGACUGCC | 0.06
UGCAGAGCUCAACACAGCGUGGCAAAGUGGCUGUGGCUAGACGGCC | 0.07
UACAGAGCUCAACACAGCGUGGCAAAGUGGCUGUGGCUAGACUGCC | 0.38
GGCAGAGCUCAACCCAGCGUGGCAAAGUCGCUGUGGCUAGACUGCC | 0.04
GGCGGAGCUCAACACAGCGUGACAAAGUGGCUGUGGCUAGACUGCC | 1.25
GGCAGAGCUCAACACAUCGUGGCAAAGUGGCUGUGGCUAGACUUCC | 0.06
GGAAGAGCUCAAGACAGCGUGGCAAAGUGGCUGUGGCUAGACUGCC | 0.54
GGGAGAGCUCAACAUAGCGUGGCAAAGUGGCUGUGGCUAGACUGCC | 0.25
GGCAGUGCUCUACACAGCGUGGCAAAGUGGCUGUGGCUAGACUGCC | 0.09

Variant | self-cleavage
GGCCGAGCUCAACACAGCGUGGCAAAGUGGCUGUCGCUAGACUGCC | 0.11
GGCAGAGCUCAACACAGCGUGGCAAAGUUGCUGUGGCGAGACUGCC | 0.02
GGCAGAGCUCAACACAUCGUGGCAAAGUGGCUGAGGCUAGACUGCC | 0.05
GGCAGAGCUCAACACAUCGUGGCAAAGUGGCUGUGGCUAGAAUGCC | 0.05
UGCAGAGCUCAACACAGCUUGGCAAAGUGGCUGUGGCUAGACUGCC | 0.11
GGCAGAGCUCAACACAGCGUGGCAAAGGGGCUGUGGCUCGACUGCC | 0.05
GGCAGAGCUCAUCACAGCGUGGCAAAGUGGCUGUGUCUAGACUGCC | 0.16
GGCAGAGCUCAACACAGCGUGGCAAAGUGGCUGGGGCUUGACUGCC | 0.09
CGCAGAGCUCAACACAGCGUAGCAAAGUGGCUGUGGCUAGACUGCC | 0.42
GGCAGAGCUCAACCCAGCGUGGCAAAGUGGCUGUAGCUAGACUGCC | 0.09
GGCAGAGCUCAACACAGCGUGGCAAAGUGGCUGUGGCCAGACUUCC | 0.27
GGCAGAGCUCAACUCAGCGUGACAAAGUGGCUGUGGCUAGACUGCC | 0.35
GCCAGAGCUCAACACAGCGUGGCAAAGUGGCUGUGGCUCGACUGCC | 0.09
GGCAGAGCUCAACACAGCGUGGCAAAGCGGCUGGGGCUAGACUGCC | 0.21
GGCAGAACUCAACACAGCGUGGCAAAGUGGCUGUGGAUAGACUGCC | 0.18
GGCAGAGCUCAACACAGCGUGGCAAAGUGGCUGUGGCGAGCCUGCC | 0.02
GGCAGAGCUCCACACAGCGUGGCACAGUGGCUGUGGCUAGACUGCC | 0.09
GGCCGAGCUCAACACAGCGUGGCAAAGUGGCUGUGGCUAGACAGCC | 0.06
